In patent US20250002610A1 (Genmab, published 2025):

T1: His-tagged recombinant Human FAPα (Acro Biosystems, Cat #FAP-H5244-100ug) (human, UniProt Q12884 26-760)
T1 construct: Bought reagent; not shown: His tag
T1 sequence (looked up): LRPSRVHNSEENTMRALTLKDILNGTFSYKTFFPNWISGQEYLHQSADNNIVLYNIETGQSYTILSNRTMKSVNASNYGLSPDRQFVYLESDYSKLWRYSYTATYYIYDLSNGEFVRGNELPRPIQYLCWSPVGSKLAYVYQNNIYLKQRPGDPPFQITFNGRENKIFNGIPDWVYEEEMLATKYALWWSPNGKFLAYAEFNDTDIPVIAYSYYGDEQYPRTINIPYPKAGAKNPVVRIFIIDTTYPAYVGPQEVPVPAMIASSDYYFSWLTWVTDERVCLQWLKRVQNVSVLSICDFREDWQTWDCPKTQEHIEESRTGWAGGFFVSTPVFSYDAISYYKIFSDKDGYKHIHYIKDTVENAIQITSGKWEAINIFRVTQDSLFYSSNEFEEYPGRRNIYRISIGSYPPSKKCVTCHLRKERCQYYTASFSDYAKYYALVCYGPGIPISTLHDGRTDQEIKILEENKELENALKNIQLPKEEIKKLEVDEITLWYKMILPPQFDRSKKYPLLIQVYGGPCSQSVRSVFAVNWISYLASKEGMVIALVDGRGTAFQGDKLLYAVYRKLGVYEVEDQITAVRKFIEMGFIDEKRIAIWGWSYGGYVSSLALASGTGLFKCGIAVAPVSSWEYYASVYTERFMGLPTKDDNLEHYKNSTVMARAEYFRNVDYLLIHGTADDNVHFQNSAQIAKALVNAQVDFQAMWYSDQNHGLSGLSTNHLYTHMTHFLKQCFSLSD

T2: His-tagged recombinant Cynomolgus FAPα (Acro Biosystems, Cat #FAP-C52H3-100ug) (cynomolgus monkey, UniProt A0A2K5VGF4 26-760)
T2 construct: Bought reagent; also called recombinant cynomolgus monkey FAPα; not shown: His tag of the vendor's construct (Acro Biosystems FAP-C52H3)
T2 sequence: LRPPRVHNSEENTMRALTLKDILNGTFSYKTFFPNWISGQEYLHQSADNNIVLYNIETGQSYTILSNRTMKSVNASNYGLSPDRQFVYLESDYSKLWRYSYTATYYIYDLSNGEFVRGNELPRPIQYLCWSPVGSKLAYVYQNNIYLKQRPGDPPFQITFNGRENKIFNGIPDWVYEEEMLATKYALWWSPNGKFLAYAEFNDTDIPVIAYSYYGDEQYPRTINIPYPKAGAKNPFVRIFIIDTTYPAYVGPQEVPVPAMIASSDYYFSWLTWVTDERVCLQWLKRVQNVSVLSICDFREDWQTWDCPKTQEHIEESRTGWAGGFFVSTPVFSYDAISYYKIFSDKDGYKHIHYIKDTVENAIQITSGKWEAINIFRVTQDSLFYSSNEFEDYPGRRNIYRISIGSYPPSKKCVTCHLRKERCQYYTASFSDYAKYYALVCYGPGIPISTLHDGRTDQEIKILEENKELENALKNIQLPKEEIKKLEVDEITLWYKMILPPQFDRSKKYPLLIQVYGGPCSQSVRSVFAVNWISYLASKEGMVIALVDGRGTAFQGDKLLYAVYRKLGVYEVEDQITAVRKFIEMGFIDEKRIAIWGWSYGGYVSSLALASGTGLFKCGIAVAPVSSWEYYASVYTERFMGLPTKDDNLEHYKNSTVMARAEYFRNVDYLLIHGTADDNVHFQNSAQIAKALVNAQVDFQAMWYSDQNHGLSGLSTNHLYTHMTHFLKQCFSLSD


Tests used:
[1] = target: T1, His-tagged recombinant Human FAPα (Acro …); assay: BLI (Octet), antigen immobilized on AR2G sensors, average of three experiments
Description: (§1) Experiments were carried out while shaking at 1,000 RPM at 30° C. Amine Reactive 2nd Generation (AR2G) biosensors (Sartorius, Cat #18-5092) were activated by reaction with 20 mM EDC (N-(3-Dimethylaminopropyl)-N′-ethylcarbodiimide hydrochloride) (Sigma-Aldrich, Cat #03449) and 10 mM s-NHS (N-hydroxysulfosuccinimide sodium salt) (Sigma-Aldrich, Cat #56485) for 300 s. The activated AR2G sensors were loaded with 2.5 μg/mL His-tagged recombinant Human FAPα (Acro Biosystems, Cat #FAP-H5244-100ug) in 10 mM Sodium Acetate pH 5.0 (Sartorius, Cat #18-1069) or 2.5 μg/mL His-tagged recombinant Cynomolgus FAPα (Acro Biosystems, Cat #FAP-C52H3-100ug) in 10 mM Sodium Acetate pH 5.0 for 600 s and quenched with 1 M ethanolamine pH 8.5 (Sartorius Cat #18-1071) for 300 s. After a baseline measurement in Sample Diluent (1000 s; Sartorius, Cat #18-1104), the association (100 s) and dissociation (4,000 s) of functionally monovalent antibody was determined using a concentration range of 0.78-800 nM with two-fold dilution steps in Sample Diluent. The molecular mass of the antibodies used for the calculations was calculated from the sequences.
(§2) The Y-axis was aligned to the last 10 s of the baseline; Interstep Correction alignment to dissociation and Savitzky-Golay filtering were applied. Data traces with a response <0.05 nm were excluded from analysis. […] The data were fitted with the 1:1 Global Full fit model using a window of interest for the association of 100 s and dissociation time set 4,000 s.

[2] = target: T2, His-tagged recombinant Cynomolgus FAPα …; assay: as above
Description: as §1, §2

| Binder | Kd [1] [nM] | koff [1] [s⁻¹] | kon [1] [M⁻¹ s⁻¹] | Kd [2] [nM] | koff [2] [s⁻¹] | kon [2] [M⁻¹ s⁻¹] |
| --- | --- | --- | --- | --- | --- | --- |
| BisG1-FAPα-FERL/DR4-FERR (bispecific antibody, human IgG1, kappa, lambda, Human IgG1 bispecific made by controlled Fab-arm exchange of IgG1-FAPα-FERL and IgG1-DR4-FERR; monovalent for FAPα and for DR4; also called GEN1057) heavy 1: EVQLLESGGGLVQPGGSPRLSCEASGFTFSSYALSWVRQAPGKGLEWVSAISGSGGGRYYADSVKGRFTISRDNSKNTLFLQMNSLRAEDTAVYYCAKEGYSSSGTYWDHWGQGTLVTVSSASTKGPSVFPLAPSSKSTSGGTAALGCLVKDYFPEPVTVSWNSGALTSGVHTFPAVLQSSGLYSLSSVVTVPSSSLGTQTYICNVNHKPSNTKVDKRVEPKSCDKTHTCPPCPAPEFERGPSVFLFPPKPKDTLMISRTPEVTCVVVDVSHEDPEVKFNWYVDGVEVHNAKTKPREEQYNSTYRVVSVLTVLHQDWLNGKEYKCKVSNKALPAPIEKTISKAKGQPREPQVYTLPPSREEMTKNQVSLTCLVKGFYPSDIAVEWESNGQPENNYKTTPPVLDSDGSFLLYSKLTVDKSRWQQGNVFSCSVMHEALHNHYTQKSLSLSPG light 1: AIQMTQSPSSVSASVGDRVTITCRASQGVSSWLAWYQQKPGRAPKLLIYVASTLQSGVPSRFSGSGSGTDFTLTINSLQPEDFATYYCQQANSFPPTFGQGTRLEMKRTVAAPSVFIFPPSDEQLKSGTASVVCLLNNFYPREAKVQWKVDNALQSGNSQESVTEQDSKDSTYSLSSTLTLSKADYEKHKVYACEVTHQGLSSPVTKSFNRGEC heavy 2: QVQLQESGPGLVKPSGTLSLTCAVSGGSISSYSWWSWIRQPPGKGLEWIGELYHSGSTNYNPSLKSRVTISVDKSKNQFSLKLRSVTAADTAVYYCVRGVATIDYWGQGTLVTVSSASTKGPSVFPLAPSSKSTSGGTAALGCLVKDYFPEPVTVSWNSGALTSGVHTFPAVLQSSGLYSLSSVVTVPSSSLGTQTYICNVNHKPSNTKVDKRVEPKSCDKTHTCPPCPAPEFERGPSVFLFPPKPKDTLMISRTPEVTCVVVDVSHEDPEVKFNWYVDGVEVHNAKTKPREEQYNSTYRVVSVLTVLHQDWLNGKEYKCKVSNKALPAPIEKTISKAKGQPREPQVYTLPPSREEMTKNQVSLTCLVKGFYPSDIAVEWESNGQPENNYKTTPPVLDSDGSFFLYSRLTVDKSRWQQGNVFSCSVMHEALHNHYTQKSLSLSPG light 2: QSALTQPPSASGSPGQSVTISCTGTSSDVGGYNFVSWYQQDPGKAPKLLIYEVTKRPSGVPDRFSGSKSGNTASLTVSGLQAEDEADYYCSSYAGSNNVMFGGGTKLTVLGQPKAAPSVTLFPPSSEELQANKATLVCLISDFYPGAVTVAWKADSSPVKAGVETTTPSKQSNNKYAASSYLSLTPEQWKSHRSYSCQVTHEGSTVEKTVAPTECS | 0.026 | 3e-05 | 1.1e+06 | 0.037 | 2.8e-05 | 770000 |
| BisG1-FAPα-FERL/b12-FERR (bispecific antibody, human IgG1, kappa) heavy 1: EVQLLESGGGLVQPGGSPRLSCEASGFTFSSYALSWVRQAPGKGLEWVSAISGSGGGRYYADSVKGRFTISRDNSKNTLFLQMNSLRAEDTAVYYCAKEGYSSSGTYWDHWGQGTLVTVSSASTKGPSVFPLAPSSKSTSGGTAALGCLVKDYFPEPVTVSWNSGALTSGVHTFPAVLQSSGLYSLSSVVTVPSSSLGTQTYICNVNHKPSNTKVDKRVEPKSCDKTHTCPPCPAPEFERGPSVFLFPPKPKDTLMISRTPEVTCVVVDVSHEDPEVKFNWYVDGVEVHNAKTKPREEQYNSTYRVVSVLTVLHQDWLNGKEYKCKVSNKALPAPIEKTISKAKGQPREPQVYTLPPSREEMTKNQVSLTCLVKGFYPSDIAVEWESNGQPENNYKTTPPVLDSDGSFLLYSKLTVDKSRWQQGNVFSCSVMHEALHNHYTQKSLSLSPG light 1: AIQMTQSPSSVSASVGDRVTITCRASQGVSSWLAWYQQKPGRAPKLLIYVASTLQSGVPSRFSGSGSGTDFTLTINSLQPEDFATYYCQQANSFPPTFGQGTRLEMKRTVAAPSVFIFPPSDEQLKSGTASVVCLLNNFYPREAKVQWKVDNALQSGNSQESVTEQDSKDSTYSLSSTLTLSKADYEKHKVYACEVTHQGLSSPVTKSFNRGEC heavy 2: QVQLVQSGAEVKKPGASVKVSCQASGYRFSNFVIHWVRQAPGQRFEWMGWINPYNGNKEFSAKFQDRVTFTADTSANTAYMELRSLRSADTAVYYCARVGPYSWDDSPQDNYYMDVWGKGTTVIVSSASTKGPSVFPLAPSSKSTSGGTAALGCLVKDYFPEPVTVSWNSGALTSGVHTFPAVLQSSGLYSLSSVVTVPSSSLGTQTYICNVNHKPSNTKVDKRVEPKSCDKTHTCPPCPAPEFERGPSVFLFPPKPKDTLMISRTPEVTCVVVDVSHEDPEVKFNWYVDGVEVHNAKTKPREEQYNSTYRVVSVLTVLHQDWLNGKEYKCKVSNKALPAPIEKTISKAKGQPREPQVYTLPPSREEMTKNQVSLTCLVKGFYPSDIAVEWESNGQPENNYKTTPPVLDSDGSFFLYSRLTVDKSRWQQGNVFSCSVMHEALHNHYTQKSLSLSPG light 2: EIVLTQSPGTLSLSPGERATFSCRSSHSIRSRRVAWYQHKPGQAPRLVIHGVSNRASGISDRFSGSGSGTDFTLTITRVEPEDFALYYCQVYGASSYTFGQGTKLERKRTVAAPSVFIFPPSDEQLKSGTASVVCLLNNFYPREAKVQWKVDNALQSGNSQESVTEQDSKDSTYSLSSTLTLSKADYEKHKVYACEVTHQGLSSPVTKSFNRGEC | 0.017 | 2.1e-05 | 1.2e+06 | 0.034 | 2.5e-05 | 750000 |
